# Laboratory results published in patent publication US20100263089A1, “USE OF P[…] FROM A PA1B LEGUME ALBUMEN AS INSECTICIDE” (Institut National de la Recherche Agronomique, priority 1998, published 2010).
# Key:
# [1] = Stability of the entomotoxic activity (storage in dry seeds, heating)
# Method: In addition, this activity is not affected by heating to 100° C.
# humans or higher animals = conditions: present in legumes of the conventional diet; no test described; cited from earlier work
substance,measurement,setting,value
PAlb protein: pea albumin PA1b (SEQ ID NO: 7) described by HIGGINS et al. (ASCNGVCSPFEMPPCGTSACRCIPVGLVVGYCRNPSG),entomotoxic/insecticidal activity after storage,[1]; dry seeds stored for several years,conserves its insecticidal activity
same,entomotoxic/insecticidal activity after heating,[1]; heating to 100° C.,not affected
same,toxicity for humans or higher animals,humans or higher animals,not toxic
